Results as given in publication PMC7788135, “OsMS188 Is a Key Regulator of Tapetum Development and Sporopollenin Synthesis in Rice”.

T1: MBP-OsMS188 (Oryza sativa (rice; Nipponbare?), UniProt Q7XQN1 1-372)
T1 sequence: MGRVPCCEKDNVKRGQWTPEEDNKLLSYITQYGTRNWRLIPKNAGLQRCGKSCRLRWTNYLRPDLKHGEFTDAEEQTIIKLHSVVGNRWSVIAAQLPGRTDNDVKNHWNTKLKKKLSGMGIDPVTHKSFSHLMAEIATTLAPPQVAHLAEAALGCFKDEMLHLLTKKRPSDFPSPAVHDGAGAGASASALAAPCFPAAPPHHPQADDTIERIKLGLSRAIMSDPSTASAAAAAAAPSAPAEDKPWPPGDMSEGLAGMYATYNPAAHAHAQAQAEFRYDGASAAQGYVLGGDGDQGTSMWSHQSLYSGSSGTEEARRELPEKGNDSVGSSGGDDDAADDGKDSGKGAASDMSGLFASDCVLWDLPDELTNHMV

T2: MBP-bHLH142 (Oryza sativa (rice; Nipponbare?), UniProt Q5JNS0 1-379)
T2 sequence: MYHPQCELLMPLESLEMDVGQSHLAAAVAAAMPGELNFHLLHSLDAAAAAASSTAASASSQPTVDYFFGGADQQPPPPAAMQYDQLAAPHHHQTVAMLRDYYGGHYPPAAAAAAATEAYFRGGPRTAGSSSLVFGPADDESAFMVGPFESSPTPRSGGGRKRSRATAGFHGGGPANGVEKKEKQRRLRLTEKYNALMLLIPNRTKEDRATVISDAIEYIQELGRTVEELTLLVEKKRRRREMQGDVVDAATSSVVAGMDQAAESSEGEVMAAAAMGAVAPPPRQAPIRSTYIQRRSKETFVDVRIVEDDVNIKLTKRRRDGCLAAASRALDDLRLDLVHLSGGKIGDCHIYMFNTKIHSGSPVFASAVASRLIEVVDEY

T3: MBP-EAT1 (Oryza sativa (rice; Nipponbare?), UniProt Q7X8R0 1-464)
T3 sequence: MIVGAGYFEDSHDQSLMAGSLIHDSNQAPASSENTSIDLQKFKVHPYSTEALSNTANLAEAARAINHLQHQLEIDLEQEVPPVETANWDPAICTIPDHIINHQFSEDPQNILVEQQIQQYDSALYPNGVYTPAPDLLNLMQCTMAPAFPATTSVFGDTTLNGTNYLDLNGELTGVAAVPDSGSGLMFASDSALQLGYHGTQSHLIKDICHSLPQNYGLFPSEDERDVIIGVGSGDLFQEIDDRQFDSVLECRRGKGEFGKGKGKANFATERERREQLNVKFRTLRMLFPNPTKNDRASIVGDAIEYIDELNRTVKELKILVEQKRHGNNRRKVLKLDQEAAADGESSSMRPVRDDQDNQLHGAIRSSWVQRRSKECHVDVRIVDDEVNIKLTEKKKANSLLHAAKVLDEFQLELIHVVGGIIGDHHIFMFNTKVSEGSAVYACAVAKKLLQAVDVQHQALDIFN

B1: CYP704B2 promoter probe (dsDNA)
DNA 1: AATAGCCTATTCAGATGAAGTAGAATTCAGGTGAAGTAGAAACCAACTACTTTGGGTTC
DNA 2: GAACCCAAAGTAGTTGGTTTCTACTTCACCTGAATTCTACTTCATCTGAATAGGCTATT
B2: OsPKS1 promoter probe (dsDNA)
DNA 1: GCAAAAATGCAGGGTAAAACCAAAGAAGGGTGGAAGGAATGAACCTTCTGCTCCCCCC
DNA 2: GGGGGGAGCAGAAGGTTCATTCCTTCCACCCTTCTTTGGTTTTACCCTGCATTTTTGC
B3: OsMS188 promoter probe (dsDNA)
DNA 1: GAGAATGCATTTGGTGGTCGTGTGTTGTTTGTAACAACTGGGGAGC
DNA 2: GCTCCCCAGTTGTTACAAACAACACACGACCACCAAATGCATTCTC
B4: ABCG15 promoter probe (dsDNA)
DNA 1: AGTCTGCTTGGCGCTCTCTCTCTGAACCTGTCACTCTTTTTTTCTGTGTCT
DNA 2: AGACACAGAAAAAAAGAGTGACAGGTTCAGAGAGAGAGCGCCAAGCAGACT
B5: OsPKS2 promoter probe (dsDNA)
DNA 1: TACCTGCTCTCCACCAACCATTCTTTCCATGCATTCGTTGCCTCTCAACTGCACCAGCT
DNA 2: AGCTGGTGCAGTTGAGAGGCAACGAATGCATGGAAAGAATGGTTGGTGGAGAGCAGGTA
B6: DPW promoter probe (dsDNA)
DNA 1: AGGGAACTGAATCTTTTGCATGAACCACTGCATTTCCAAGAAGTGCACGAGCTTTGCA
DNA 2: TGCAAAGCTCGTGCACTTCTTGGAAATGCAGTGGTTCATGCAAAAGATTCAGTTCCCT
B7: CYP703A3 promoter probe (dsDNA)
DNA 1: GATATCACATGACTTGTACATAATGCCTAAAATGTGGATATCTGACCAGGTGCTTGGTG
DNA 2: CACCAAGCACCTGGTCAGATATCCACATTTTAGGCATTATGTACAAGTCATGTGATATC

How the values were obtained:
MBP-OsMS188 = biological target: T1, MBP-OsMS188; assay: EMSA; unlabelled probe competes; LightShift Chemiluminescent EMSA Kit (Thermo); buffer, salt, pH and temperature not stated; details: protein: recombinant; label: biotin; blunt
MBP-TDR = MBP-TDR (Oryza sativa (rice; Nipponbare?), UniProt Q6YUS3 1-552); assay: EMSA; unlabelled probe (5- to 200-fold) competes; LightShift Chemiluminescent EMSA Kit (Thermo); buffer, salt, pH and temperature not stated
MBP-bHLH142 = biological target: T2, MBP-bHLH142; assay: EMSA; shifted band not reduced by unlabelled probe; authors conclude no direct binding; LightShift Chemiluminescent EMSA Kit (Thermo); buffer, salt, pH and temperature not stated; details: protein: recombinant; chain copies: 2; label: biotin; blunt
MBP-EAT1 = biological target: T3, MBP-EAT1; assay: as above; details: protein: recombinant; chain copies: 2; label: biotin; blunt

Binder	binding result (MBP-OsMS188)	further results
B1	binds	
B2	binds	
B3		binding result (MBP-TDR): binds; binding result (MBP-bHLH142): no binding; binding result (MBP-EAT1): no binding
B4	binds	
B5	binds	
B6	binds	
B7	binds	
